From US20250051463A1, “CD123 ANTIBODY-DRUG CONJUGATES AND METHODS OF USING THE SAME” (ASTRAZENECA AB, priority 2023, published 2025)

What was measured:
HPAEC = test: CellTiter-Glo cell viability, 3 days; type: cell-based
Experimental: (§1) The CD123-expressing endothelial cell lines HUVEC and HPAEC and control cell lines RPMI-8226 (high CD123 expressing) and K562 (low expressing or negative for CD123) were cultured and co-incubated with Comparator-1 ADC, NIP228-SG3932 (isotype control for HT12-GL-SG3932) HT12-GL-SG3932, or CD123 mAb (HT12-GL) for 3 days at concentrations ranging from 0.0017 to 520 μg/mL for CD123 mAb, HT12-GL-SG3932, or NIP228-SG3932) or 0.0010 to 320 μg/mL for IMGN-IGN). Cell viability was assessed by CellTiter-Glo Cell Viability Assay and IC50 for viability was calculated (when possible) for each compound for each cell line. Expression of CD123 was assessed by western blot surface expression or by flow cytometry (FIG. 9C-9H).

HUVEC = test: CellTiter-Glo cell viability, 3 days; type: cell-based
Experimental: as §1

K562 = test: CellTiter-Glo cell viability, 3 days; type: cell-based
Experimental: as §1

RPMI-8226 = test: CellTiter-Glo cell viability, 3 days; type: cell-based
Experimental: as §1

[1] = tested on: subcutaneous EOL-1 tumors; test: EOL-1 subcutaneous xenograft study; type: in vivo, Nude mice; details: 0.24 mg/kg at a single dose
Experimental: EOL-1 cells that express about 2,000 CD123/IL3Rα per cell were maintained in the RPMI-1640 medium containing 10% heat-inactivated FBS and were cultured in a humidified atmosphere of 5% CO2 and at a temperature of 37° C. On the day of implantation, cells were spun down at 1500 rpm for 5 minutes, counted, and resuspended to a final concentration of 50×10^6 cells/mL in PBS. Female Nude mice were each injected subcutaneously in the right flank with 10×10^6 cells in 200 μL volume. When average tumor volume reached ˜150-250 mm^3 on Day 9, mice were randomized into treatment groups using the Matched Distribution method built into the Study Director software.
Test and control ADC were diluted from a stock solution with vehicle buffer (20 mM histidine, 240 mM sucrose, 0.02% Polysorbate 80, pH 6.0) and were administered as a single intravenous (IV) injection according to body weight.
Tumor volume and body weight were measured twice weekly from Day 6 to Day 60 after EOL-1 implant. Tumors were measured by caliper and the volumes of tumors were calculated using the following formula:
Tumor Volume=[length (mm)×width (mm)^2]/2; where the length and the width are the longest and shortest diameters of the tumor respectively.

B1: pivekimab sunirine (conjugate, chains of the INN, looked up)
VH: QVQLVQSGAEVKKPGASVKVSCKASGYIFTSSIMHWVRQAPGQGLEWIGYIKPYNDGTKYNEKFKGRATLTSDRSTSTAYMELSSLRSEDTAVYYCAREGGNDYYDTMDYWGQGTLVTVSS
VL: EIQMTQSPSSLSASVGDRVTITCRASQDINSYLSWFQQKPGKAPKTLIYRVNRLVDGVPSRFSGSGSGNDYTLTISSLQPEDFATYYCLQYDAFPYTFGQGTKVEIK
modifications: sunirine payload
HPAEC
  Cytotoxicity (Viability IC50) HPAEC: 6.0 µg/mL
HUVEC
  Cytotoxicity (Viability IC50) HUVEC: 6.9 µg/mL
K562
  Cytotoxicity (Viability IC50) K562: 10.3 µg/mL
RPMI-8226
  Cytotoxicity (Viability IC50) RPMI-8226: 53.9 µg/mL
[1]
  anti-tumor effect (tumor volume): complete tumor regression
